Results taken from publication PMC2899456 (International Journal of Biological Sciences, 2010).

Legend:
Assay in all cases: co-IP
E2F-1/S375A = E2F-1/S375A (UniProt Q01094 1-437, S375A)
E2F-1/Y411A = E2F-1/Y411A (UniProt Q01094 1-437, Y411A)
E2F-1/S332-7A = E2F-1/S332-7A (UniProt Q01094 1-437, S332-7A | S332-7A)
E2F-1/S403A = E2F-1/S403A (UniProt Q01094 1-437, S403A)

fold change of the pRB/E2F-1 co-IP ratio against E2F-1/wt (E2F-1/S375A): ~2.5 fold (increase) | fold change of the pRB/E2F-1 co-IP ratio against E2F-1/wt (E2F-1/Y411A): ~4 fold (decrease) | fold change of the pRB/E2F-1 co-IP ratio against E2F-1/wt (E2F-1/S332-7A): ~3 fold (increase) | fold change of the pRB/E2F-1 co-IP ratio against E2F-1/wt (E2F-1/S403A): ~3 fold (increase)
B1: pRB (natural protein, mouse (endogenous in ψ-CRE), UniProt P13405 1-921, looked up)
chain: MPPKAPRRAAAAEPPPPPPPPPREDDPAQDSGPEELPLARLEFEEIEEPEFIALCQKLKVPDHVRERAWLTWEKVSSVDGILEGYIQKKKELWGICIFIAAVDLDEMPFTFTELQKSIETSVYKFFDLLKEIDTSTKVDNAMSRLLKKYNVLCALYSKLERTCELIYLTQPSSALSTEINSMLVLKISWITFLLAKGEVLQMEDDLVISFQLMLCVVDYFIKFSPPALLREPYKTAAIPINGSPRTPRRGQNRSARIAKQLENDTRIIEVLCKEHECNIDEVKNVYFKNFIPFINSLGIVSSNGLPEVESLSKRYEEVYLKNKDLDARLFLDHDKTLQTDPIDSFETERTPRKNNPDEEANVVTPHTPVRTVMNTIQQLMVILNSASDQPSENLISYFNNCTVNPKENILKRVKDVGHIFKEKFANAVGQGCVDIGVQRYKLGVRLYYRVMESMLKSEEERLSIQNFSKLLNDNIFHMSLLACALEVVMATYSRSTLQHLDSGTDLSFPWILNVLNLKAFDFYKVIESFIKVEANLTREMIKHLERCEHRIMESLAWLSDSPLFDLIKQSKDGEGPDNLEPACPLSLPLQGNHTAADMYLSPLRSPKKRTSTTRVNSAANTETQAASAFHTQKPLKSTSLALFYKKVYRLAYLRLNTLCARLLSDHPELEHIIWTLFQHTLQNEYELMRDRHLDQIMMCSMYGICKVKNIDLKFKIIVTAYKDLPHAAQETFKRVLIREEEFDSIIVFYNSVFMQRLKTNILQYASTRPPTLSPIPHIPRSPYKFSSSPLRIPGGNIYISPLKSPYKISEGLPTPTKMTPRSRILVSIGESFGTSEKFQKINQMVCNSDRVLKRSAEGGNPPKPLKKLRFDIEGADEADGSKHLPAESKFQQKLAEMTSTRTRMQKQRMNESKDVSNKEEK
